Experimental data from article PMC5552852, “Structural basis for Ccd1 auto-inhibition in the Wnt pathway through homomerization of the DIX domain” (Scientific Reports, 2017).

B1: zebrafish Coiled-coil-DIX1 (zCcd1) DIX domain [zebrafish] / itself (parent)
chain: AAASTKVLYYTDRSLTPFLVNIPKRLGDVTLQDFKAAVDRHGSFRYHFKSLDPEFGTVKEEVFQDDAVIPGWEGKIVAWVEED

Variants of: B1
Test: gel filtration
Conditions: with itself; read off a plot

| screen value | Variant |
| --- | --- |
| 80 mL | AAASTKVLYFTDRSLTPFLVNIPKRLGDVTLQDFKAAVDRHGSFRYHFKSLDPEFGTVKEEVFQDDAVIPGWEGKIVAWVEED |
